Experimental data taken from patent US20190077883A1.

Molecular target: GST-tagged human FcRn (human; Schistosoma japonicum) (UniProt P55899)
Assay: ELISA pH 6.0, h9C12 variant captured on AdV5 hexon, GST-hFcRn detected with anti-GST-HRP

Fold change from WT (ELISA) pH 6.0: 3 fold
B1: h9C12 IgG3(b)-Q311R/N434W/M428E/R435H (antibody, part only; not given: variable domains, not shown: another chain or arm of the molecule)
constant: ASTKGPSVFPLAPCSRSTSGGTAALGCLVKDYFPEPVTVSWNSGALTSGVHTFPAVLQSSGLYSLSSVVTVPSSSLGTQTYTCNVNHKPSNTKVDKRVELKTPLGDTTHTCPRCPEPKSCDTPPPCPRCPEPKSCDTPPPCPRCPEPKSCDTPPPCPRCPAPELLGGPSVFLFPPKPKDTLMISRTPEVTCVVVDVSHEDPEVQFKWYVDGVEVHNAKTKPREEQYNSTFRVVSVLTVLHRDWLNGKEYKCKVSNKALPAPIEKTISKTKGQPREPQVYTLPPSREEMTKNQVSLTCLVKGFYPSDIAVEWESSGQPENNYNTTPPMLDSDGSFFLYSKLTVDKSRWQQGNIFSCSVEHEALHWHFTQKSLSLSPGK
